In the supplement of paper PMC10899765:

What was measured:
Conditions in all cases: 20 nM; 72 h
[1] = system: MCF10A; assay: 5+ nucleoli phenotype percent effect (relative to siNT 0% and siKIF11 100%); higher = more cells with five or more nucleoli
Procedure: (§1)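 After 72 h, cells were fixed and stained with Hoechst and anti-fibrillarin, and nucleoli per nucleus were counted with CellProfiler. Values are plate-adjusted percent effect for the one-nucleolus and 5+ nucleoli phenotypes, normalised to siNT (0%) and to the positive controls siNOL11 or siKIF11 (100%), as the mean of biological triplicates. Percent viability is the nuclei count relative to siNT.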

[2] = system: MCF10A; assay: percent viability (nuclei count relative to siNT); higher = more viable cells
Procedure: as §1

[3] = system: MCF10A; assay: one-nucleolus phenotype percent effect (relative to siNT 0% and siNOL11 100%); higher = more cells with one nucleolus (ribosome biogenesis inhibition)
Procedure: as §1

Sequence	5+ nucleoli phenotype percent effect [1]	percent viability [2]	one-nucleolus phenotype percent effect [3]
UGGUGGAGGAAGAGGGCAGCUC [hsa-miR-6880-5p]	-19.7%	3.74%	-4.17%
AGCCAAGUGGAAGUUACUUUA [hsa-miR-4480]	-37.2%	21.9%	33.8%
UCCUCUUCUCCCUCCUCCCAG [hsa-miR-877-3p]	-15.4%	59%	6.33%
UCCCUCCUUCUGUCCCCACAG [hsa-miR-4667-3p]	-12.9%	71.8%	-2.78%
AAUUGCACUUUAGCAAUGGUGA [hsa-miR-367-3p]	18%	111%	-12.8%
AACGGCAAUGACUUUUGUACCA [hsa-miR-548al]	-4.48%	58.9%	-4.22%
UUAGGGCCCUGGCUCCAUCUCC [hsa-miR-1296]	13.2%	39.5%	8%
ACAAAGUACAGCAUUAGCCUUAG [hsa-miR-3973]	0.19%	29.3%	-6.17%
UCUGGUAUGUAGUAGGUAAUAA [hsa-miR-4774-5p]	80.9%	62.8%	-25.6%
GGAGGGGUCCCGCACUGGGAGG [hsa-miR-1914-3p]	46.6%	126%	-23.7%
GUGUCUGGGCGGACAGCUGC [hsa-miR-1231]	-15.6%	39.3%	62.4%
UUGCAUGUCAGAUUGUAAUUCCC [hsa-miR-4666b]	-10.4%	64.4%	5.21%
UGCACAUGGCAACCUAGCUCCCA [hsa-miR-5589-3p]	-1.16%	45.2%	6.29%
UGAGGGGCAGAGAGCGAGACUUU [hsa-miR-423-5p]	-10.7%	41.6%	13.3%
CAUAAAGUAGAAAGCACUACU [hsa-miR-142-5p]	15%	82.4%	-15.5%
GCGCUGACCCGCCUUCUCCGCA [hsa-miR-6825-3p]	45.7%	108%	-15%
ACUUAAACGUGGAUGUACUUGCU [hsa-miR-302a-5p]	65.8%	128%	-19%
UAGAGGAAGCUGUGGAGAGA [hsa-miR-3125]	-14.5%	23.3%	13.8%
AUCGUGCAUCCUUUUAGAGUGU [hsa-miR-517c-3p]	-11.3%	41.6%	11.8%
AAACUAAUAUACCCAUAUUCUG [hsa-miR-5583-5p]	35.5%	115%	-23.4%
GUGCAUUGUAGUUGCAUUGCA [hsa-miR-33a-5p]	-0.156%	46%	-0.977%
AGCAGCAUUGUACAGGGCUAUGA [hsa-miR-103a-3p]	-29%	36.3%	15.6%
GGGAAAAGGAAGGGGGAGGA [hsa-miR-6124]	53.1%	180%	-29.7%

Sequence	5+ nucleoli phenotype percent effect [1]	percent viability [2]	one-nucleolus phenotype percent effect [3]
CAGCCGCCGCCUGUCUCCACAG [hsa-miR-6746-3p]	7.39%	36.2%	-1.13%
AUUAGGUAGUGGCAGUGGAAC [hsa-miR-6509-5p]	6.73%	55.7%	-17.9%
AAUCCUUGCUACCUGGGU [hsa-miR-500b]	12.8%	32.3%	-0.735%
GACUGACACCUCUUUGGGUGAA [hsa-miR-888-3p]	8.85%	84.1%	-18.1%
AUACCUCAUCUAGAAUGCUGUA [hsa-miR-4777-3p]	-19.6%	51.3%	0.874%
UGUUGCAAGUCGGUGGAGACGU [hsa-miR-4684-3p]	-9.23%	43.9%	4.39%
CACAUGGCCGAAACAGAGAAGU [hsa-miR-942-3p]	-8.03%	32.7%	-19.9%
AAAAGUAAUUGUGGAUUUUGCU [hsa-miR-548ab]	30.5%	67.8%	-19.3%
CUCCGUUUGCCUGUUUCGCUG [hsa-miR-1468]	30.4%	112%	-8.9%
AAAAUGAAAUGAGCCCAGCCCA [hsa-miR-3646]	21.9%	63.5%	-19.1%
UUACAGGCGUGAACCACCGCG [hsa-miR-5095]	-7.36%	12.8%	15.8%
CAAGCCUCUCCUGCCCUUCCAG [hsa-miR-7109-3p]	31.1%	51.1%	-12.1%
GGCCUUGUUCCUGUCCCCA [hsa-miR-4312]	-25.8%	22.7%	56%
UAACCCUGUCCUCUCCCUCCCAG [hsa-miR-6732-3p]	1.9%	36.4%	-9.42%
AGGCAGCGGGGUGUAGUGGAUA [hsa-miR-885-3p]	-36.7%	19.2%	61.2%
UGACGCCCCUUCUGAUUCUGCCU [hsa-miR-6786-3p]	-4.1%	50.9%	0.306%
GAGUGUAGUUCUGAGCAGAGC [hsa-miR-4280]	-17.9%	29.9%	18.3%
UGGCGGCGGUAGUUAUGGGCUU [hsa-miR-4467]	-36%	30.8%	39.9%
UGAGCGCCUCGACGACAGAGCCG [hsa-miR-339-3p]	27%	82.2%	-25.2%
AAAGCGCUUCCCUUCAGAGUG [hsa-miR-518e-3p]	-27.4%	48.9%	9.91%
AAAAGUAAUUGCGGUUUUUGCC [hsa-miR-548am-5p]	39.6%	139%	-17.6%
UAAUGAUUCAUCAGACUCAGAU [hsa-miR-580-5p]	-17.8%	32.9%	14%
